We go through two substances from PMC4831045.

Broadly, the pKd is the negative decadic logarithm of the Kd, by convention in mol/L.

The target of experiment [1] is cNTnC N-terminal domain (Homo sapiens) (UniProt P63316). The following applies: cited from earlier work.
Experiment [2] concerns the target cTnC(C35S)-i9: cardiac troponin C (C35S) with the levosimendan analog i9 covalently bound to C84 (UniProt P63316). Kind of experiment: NMR titration; 19F NMR; 530 μM Ca2+-saturated cTnC(C35S)-i9 in NMR buffer (100 mM KCl, 10 mM imidazole, 2 mM CaCl2, pH 6.9), 30 °C, titrated with switch-cTnI (144–163) 0 to 1,540 μM; area under the F4′ signal of i9 fit with one-to-one stoichiometry (xcrvfit).

pKd: −log10 of the molar value.

switch-cTnI 144-163, sequence (P19429 144-163): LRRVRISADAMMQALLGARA

In the case of “switch-cTnI 144-163 (from UniProt P19429)”, the pKd in experiment [1] is 4.59.

In experiment [2], “switch-cTnI (residues 144–163) (peptide)” gave a pKd of 4.13.
